# Measured values taken from paper PMC9482650, “Quantitative fragmentomics allow affinity mapping of interactomes” (Nature Communications, 2022).
# B1: TECPR2, O15040 (peptide)
# chain: EDLEDEWEVI
# B2: PRKACA, P17612 (peptide)
# chain: EKCGKEFSEF
# Target: T1, FRMPD1, Q5SYB0
# T1 sequence (Q5SYB0 52-145, limits assumed, looked up): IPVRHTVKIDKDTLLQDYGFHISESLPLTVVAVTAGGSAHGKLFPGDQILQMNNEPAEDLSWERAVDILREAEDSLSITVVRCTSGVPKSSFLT
# Assay: holdup assay
# Design: key: below the threshold = too weak to quantify, mostly under pKd 3.1 to 4
# Settings: plain residues with an end cap or a label only (N-terminal biotin on a linker: ado-ado)
row,Binder,pKd
1,B1,below the threshold
2,B2,below the threshold

# Target: SCRIB_1, Q14160
# Assay: holdup assay
# Design: key: below the threshold = too weak to quantify, mostly under pKd 3.1 to 4
# Settings: plain residues with an end cap or a label only (N-terminal biotin on a linker: ado-ado)
# Sequence of SCRIB_1, Q14160 (Q14160 718-814): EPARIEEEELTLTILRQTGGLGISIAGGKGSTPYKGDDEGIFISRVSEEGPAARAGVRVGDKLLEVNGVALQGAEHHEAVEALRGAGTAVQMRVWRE
row,Binder,pKd
1,B1,below the threshold
2,B2,below the threshold

# Target: MAST2, Q6P0Q8
# Assay: holdup assay
# Design: key: below the threshold = too weak to quantify, mostly under pKd 3.1 to 4
# Settings: plain residues with an end cap or a label only (N-terminal biotin on a linker: ado-ado)
# Sequence of MAST2, Q6P0Q8 (Q6P0Q8 1099-1202): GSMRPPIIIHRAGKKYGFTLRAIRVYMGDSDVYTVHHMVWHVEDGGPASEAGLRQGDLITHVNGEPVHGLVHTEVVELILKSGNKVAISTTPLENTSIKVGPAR
row,Binder,pKd
1,B1,4.14
2,B2,5.08

# Target: GIPC2, Q8TF65
# Assay: holdup assay
# Design: key: below the threshold = too weak to quantify, mostly under pKd 3.1 to 4
# Settings: plain residues with an end cap or a label only (N-terminal biotin on a linker: ado-ado)
# Sequence of GIPC2, Q8TF65 (Q8TF65 112-203): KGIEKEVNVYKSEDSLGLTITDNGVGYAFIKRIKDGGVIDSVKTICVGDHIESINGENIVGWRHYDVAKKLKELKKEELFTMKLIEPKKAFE
row,Binder,pKd
1,B1,below the threshold
2,B2,below the threshold

# Target: MAGI2_5, Q86UL8
# Assay: holdup assay
# Design: key: below the threshold = too weak to quantify, mostly under pKd 3.1 to 4
# Settings: plain residues with an end cap or a label only (N-terminal biotin on a linker: ado-ado)
# Sequence of MAGI2_5, Q86UL8 (Q86UL8 915-1017): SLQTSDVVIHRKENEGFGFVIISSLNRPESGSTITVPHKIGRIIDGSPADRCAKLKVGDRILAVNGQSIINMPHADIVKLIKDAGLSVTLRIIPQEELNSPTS
row,Binder,pKd
1,B1,below the threshold
2,B2,3.8

# Target: T2, RADIL, Q96JH8
# T2 sequence (Q96JH8 971-1071, limits assumed, looked up): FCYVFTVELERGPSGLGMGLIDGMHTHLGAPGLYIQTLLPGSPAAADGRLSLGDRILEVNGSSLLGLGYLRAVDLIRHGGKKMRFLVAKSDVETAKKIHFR
# Assay: holdup assay
# Design: key: below the threshold = too weak to quantify, mostly under pKd 3.1 to 4
# Settings: plain residues with an end cap or a label only (N-terminal biotin on a linker: ado-ado)
row,Binder,pKd
1,B1,below the threshold
2,B2,below the threshold

# Target: T3, LIN7A, O14910
# T3 sequence (O14910 103-200, limits assumed, looked up): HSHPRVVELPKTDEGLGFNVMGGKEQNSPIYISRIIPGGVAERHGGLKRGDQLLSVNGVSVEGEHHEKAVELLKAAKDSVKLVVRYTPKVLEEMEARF
# Assay: holdup assay
# Design: key: below the threshold = too weak to quantify, mostly under pKd 3.1 to 4
# Settings: plain residues with an end cap or a label only (N-terminal biotin on a linker: ado-ado)
row,Binder,pKd
1,B1,below the threshold
2,B2,below the threshold

# Target: MAGI2_6, Q86UL8
# Assay: holdup assay
# Design: key: below the threshold = too weak to quantify, mostly under pKd 3.1 to 4
# Settings: plain residues with an end cap or a label only (N-terminal biotin on a linker: ado-ado)
# Sequence of MAGI2_6, Q86UL8 (Q86UL8 1141-1229): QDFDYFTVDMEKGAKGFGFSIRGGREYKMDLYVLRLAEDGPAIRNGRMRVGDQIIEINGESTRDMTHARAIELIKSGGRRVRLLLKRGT
row,Binder,pKd
1,B1,3.56
2,B2,below the threshold

# Target: GRIP2_6, Q9C0E4
# Assay: holdup assay
# Design: key: below the threshold = too weak to quantify, mostly under pKd 3.1 to 4
# Settings: plain residues with an end cap or a label only (N-terminal biotin on a linker: ado-ado)
# Sequence of GRIP2_6, Q9C0E4 (Q9C0E4 648-740): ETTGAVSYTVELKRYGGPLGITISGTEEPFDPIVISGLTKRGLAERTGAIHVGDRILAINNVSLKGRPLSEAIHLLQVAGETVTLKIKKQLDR
row,Binder,pKd
1,B1,below the threshold
2,B2,below the threshold

# Target: T4, LNX2_3, Q8N448
# T4 sequence (Q8N448 463-564, limits assumed, looked up): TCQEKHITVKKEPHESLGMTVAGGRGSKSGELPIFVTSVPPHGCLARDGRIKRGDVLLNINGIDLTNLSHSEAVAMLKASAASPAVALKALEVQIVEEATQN
# Assay: holdup assay
# Design: key: below the threshold = too weak to quantify, mostly under pKd 3.1 to 4
# Settings: plain residues with an end cap or a label only (N-terminal biotin on a linker: ado-ado)
row,Binder,pKd
1,B1,below the threshold
2,B2,below the threshold

# Target: FRMPD3, Q5JV73
# Assay: holdup assay
# Design: key: below the threshold = too weak to quantify, mostly under pKd 3.1 to 4
# Settings: plain residues with an end cap or a label only (N-terminal biotin on a linker: ado-ado)
# Sequence of FRMPD3, Q5JV73 (Q5JV73 12-100): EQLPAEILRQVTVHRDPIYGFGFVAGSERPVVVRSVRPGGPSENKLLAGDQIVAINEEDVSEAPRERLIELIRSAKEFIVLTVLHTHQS
row,Binder,pKd
1,B1,below the threshold
2,B2,below the threshold

# Target: T5, CARD11, Q9BXL7
# T5 sequence (Q9BXL7 662-765, limits assumed, looked up): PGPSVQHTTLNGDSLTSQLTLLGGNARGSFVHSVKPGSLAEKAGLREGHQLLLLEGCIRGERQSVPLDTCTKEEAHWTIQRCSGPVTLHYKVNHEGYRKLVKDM
# Assay: holdup assay
# Design: key: below the threshold = too weak to quantify, mostly under pKd 3.1 to 4
# Settings: plain residues with an end cap or a label only (N-terminal biotin on a linker: ado-ado)
row,Binder,pKd
1,B1,below the threshold
2,B2,below the threshold

# Target: T6, PARD3B_1, Q8TEW8
# T6 sequence (Q8TEW8 196-299, limits assumed, looked up): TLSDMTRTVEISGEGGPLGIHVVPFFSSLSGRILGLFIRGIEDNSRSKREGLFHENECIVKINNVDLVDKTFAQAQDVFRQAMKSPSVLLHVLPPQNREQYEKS
# Assay: holdup assay
# Design: key: below the threshold = too weak to quantify, mostly under pKd 3.1 to 4
# Settings: plain residues with an end cap or a label only (N-terminal biotin on a linker: ado-ado)
row,Binder,pKd
1,B1,4.3
2,B2,3.91

# Target: PTPN3, P26045
# Assay: holdup assay
# Design: key: below the threshold = too weak to quantify, mostly under pKd 3.1 to 4
# Settings: plain residues with an end cap or a label only (N-terminal biotin on a linker: ado-ado)
# Sequence of PTPN3, P26045 (P26045 505-587): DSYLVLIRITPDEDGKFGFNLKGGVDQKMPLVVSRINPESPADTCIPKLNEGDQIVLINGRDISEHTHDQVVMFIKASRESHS
row,Binder,pKd
1,B1,below the threshold
2,B2,3.98

# Target: DLG2_2, Q15700
# Assay: holdup assay
# Design: key: below the threshold = too weak to quantify, mostly under pKd 3.1 to 4
# Settings: plain residues with an end cap or a label only (N-terminal biotin on a linker: ado-ado)
# Sequence of DLG2_2, Q15700 (Q15700 189-283): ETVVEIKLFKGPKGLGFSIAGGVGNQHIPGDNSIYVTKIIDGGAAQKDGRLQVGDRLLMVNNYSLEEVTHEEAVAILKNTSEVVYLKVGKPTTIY
row,Binder,pKd
1,B1,below the threshold
2,B2,below the threshold

# Target: T7, ARHGAP21, Q5T5U3
# T7 sequence (Q5T5U3 45-169, limits assumed, looked up): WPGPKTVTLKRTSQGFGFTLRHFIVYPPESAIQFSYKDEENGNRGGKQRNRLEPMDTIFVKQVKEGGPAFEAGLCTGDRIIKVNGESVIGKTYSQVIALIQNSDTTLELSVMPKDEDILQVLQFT
# Assay: holdup assay
# Design: key: below the threshold = too weak to quantify, mostly under pKd 3.1 to 4
# Settings: plain residues with an end cap or a label only (N-terminal biotin on a linker: ado-ado)
row,Binder,pKd
1,B1,below the threshold
2,B2,below the threshold

# Target: LIMK2, P53671
# Assay: holdup assay
# Design: key: below the threshold = too weak to quantify, mostly under pKd 3.1 to 4
# Settings: plain residues with an end cap or a label only (N-terminal biotin on a linker: ado-ado)
# Sequence of LIMK2, P53671 (P53671 143-248): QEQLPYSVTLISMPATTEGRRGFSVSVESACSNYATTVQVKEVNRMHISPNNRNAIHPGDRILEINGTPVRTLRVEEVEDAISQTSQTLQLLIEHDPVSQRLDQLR
row,Binder,pKd
1,B1,below the threshold
2,B2,below the threshold

# Target: LDB3, O75112
# Assay: holdup assay
# Design: key: below the threshold = too weak to quantify, mostly under pKd 3.1 to 4
# Settings: plain residues with an end cap or a label only (N-terminal biotin on a linker: ado-ado)
# Sequence of LDB3, O75112 (O75112 1-94): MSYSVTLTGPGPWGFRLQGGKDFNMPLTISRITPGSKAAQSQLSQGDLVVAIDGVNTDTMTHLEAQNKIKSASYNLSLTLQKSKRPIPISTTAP
row,Binder,pKd
1,B1,below the threshold
2,B2,below the threshold

# Target: Inadl_10, Q8NI35
# Assay: holdup assay
# Design: key: below the threshold = too weak to quantify, mostly under pKd 3.1 to 4
# Settings: plain residues with an end cap or a label only (N-terminal biotin on a linker: ado-ado)
# Sequence of Inadl_10, Q8NI35 (Q8NI35 1673-1763): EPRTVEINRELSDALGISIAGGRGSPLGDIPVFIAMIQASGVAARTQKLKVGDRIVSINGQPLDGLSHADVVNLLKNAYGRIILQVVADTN
row,Binder,pKd
1,B1,below the threshold
2,B2,below the threshold

# Target: SNX27, Q96L92
# Assay: holdup assay
# Design: key: below the threshold = too weak to quantify, mostly under pKd 3.1 to 4
# Settings: plain residues with an end cap or a label only (N-terminal biotin on a linker: ado-ado)
row,Binder,pKd
1,B1,below the threshold
2,B2,below the threshold

# Target: ARHGEF12, Q9NZN5-2
# Assay: holdup assay
# Design: key: below the threshold = too weak to quantify, mostly under pKd 3.1 to 4
# Settings: plain residues with an end cap or a label only (N-terminal biotin on a linker: ado-ado)
# Sequence of ARHGEF12, Q9NZN5-2 (Q9NZN5 other isoform, or with tags, fused parts or gaps): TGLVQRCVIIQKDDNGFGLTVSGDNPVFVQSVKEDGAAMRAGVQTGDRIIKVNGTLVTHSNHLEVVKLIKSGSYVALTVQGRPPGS
row,Binder,pKd
1,B1,below the threshold
2,B2,below the threshold

# Target: DLG4_1, P78352
# Assay: holdup assay
# Design: key: below the threshold = too weak to quantify, mostly under pKd 3.1 to 4
# Settings: plain residues with an end cap or a label only (N-terminal biotin on a linker: ado-ado)
# Sequence of DLG4_1, P78352 (P78352 62-152): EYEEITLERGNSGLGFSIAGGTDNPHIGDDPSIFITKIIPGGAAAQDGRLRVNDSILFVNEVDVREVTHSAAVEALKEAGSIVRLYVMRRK
row,Binder,pKd
1,B1,below the threshold
2,B2,below the threshold

# Target: MAGI1_1, Q96QZ7
# Assay: holdup assay
# Design: key: below the threshold = too weak to quantify, mostly under pKd 3.1 to 4
# Settings: plain residues with an end cap or a label only (N-terminal biotin on a linker: ado-ado)
# Sequence of MAGI1_1, Q96QZ7 (Q96QZ7 1-106): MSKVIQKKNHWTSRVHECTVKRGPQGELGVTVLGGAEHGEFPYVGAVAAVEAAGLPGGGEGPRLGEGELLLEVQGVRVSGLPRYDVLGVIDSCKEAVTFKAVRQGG
row,Binder,pKd
1,B1,below the threshold
2,B2,below the threshold

# Target: Inadl_8, Q8NI35
# Assay: holdup assay
# Design: key: below the threshold = too weak to quantify, mostly under pKd 3.1 to 4
# Settings: plain residues with an end cap or a label only (N-terminal biotin on a linker: ado-ado)
# Sequence of Inadl_8, Q8NI35 (Q8NI35 1425-1530): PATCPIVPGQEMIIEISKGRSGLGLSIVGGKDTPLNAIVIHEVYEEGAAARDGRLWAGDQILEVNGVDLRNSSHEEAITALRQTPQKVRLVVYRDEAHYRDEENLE
row,Binder,pKd
1,B1,below the threshold
2,B2,below the threshold

# Target: T8, PDZRN3_1, Q9UPQ7
# T8 sequence (Q9UPQ7 244-349, limits assumed, looked up): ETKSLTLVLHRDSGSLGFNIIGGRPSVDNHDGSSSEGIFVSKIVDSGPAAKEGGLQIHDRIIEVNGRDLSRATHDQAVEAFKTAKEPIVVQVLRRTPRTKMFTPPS
# Assay: holdup assay
# Design: key: below the threshold = too weak to quantify, mostly under pKd 3.1 to 4
# Settings: plain residues with an end cap or a label only (N-terminal biotin on a linker: ado-ado)
row,Binder,pKd
1,B1,below the threshold
2,B2,below the threshold

# Target: Inadl_3, Q8NI35
# Assay: holdup assay
# Design: key: below the threshold = too weak to quantify, mostly under pKd 3.1 to 4
# Settings: plain residues with an end cap or a label only (N-terminal biotin on a linker: ado-ado)
# Sequence of Inadl_3, Q8NI35 (Q8NI35 359-469): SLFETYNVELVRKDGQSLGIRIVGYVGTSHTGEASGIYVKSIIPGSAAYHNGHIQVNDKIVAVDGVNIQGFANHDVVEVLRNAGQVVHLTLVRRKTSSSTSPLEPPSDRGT
row,Binder,pKd
1,B1,4.33
2,B2,below the threshold

# Target: GRASP, Q7Z6J2
# Assay: holdup assay
# Design: key: below the threshold = too weak to quantify, mostly under pKd 3.1 to 4
# Settings: plain residues with an end cap or a label only (N-terminal biotin on a linker: ado-ado)
# Sequence of GRASP, Q7Z6J2 (Q7Z6J2 96-193): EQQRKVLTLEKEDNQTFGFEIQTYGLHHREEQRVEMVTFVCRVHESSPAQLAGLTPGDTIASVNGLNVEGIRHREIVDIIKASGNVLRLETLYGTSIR
row,Binder,pKd
1,B1,below the threshold
2,B2,4.16

# Target: NHERF4_1, Q86UT5-2
# Assay: holdup assay
# Design: key: below the threshold = too weak to quantify, mostly under pKd 3.1 to 4
# Settings: plain residues with an end cap or a label only (N-terminal biotin on a linker: ado-ado)
# Sequence of NHERF4_1, Q86UT5-2 (Q86UT5 other isoform, or with tags, fused parts or gaps): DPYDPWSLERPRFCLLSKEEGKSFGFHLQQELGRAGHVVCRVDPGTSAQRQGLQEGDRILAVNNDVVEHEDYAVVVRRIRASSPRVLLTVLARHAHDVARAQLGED
row,Binder,pKd
1,B1,below the threshold
2,B2,3.56

# Target: T9, MPP2, Q14168
# T9 sequence (Q14168 180-250, limits assumed, looked up): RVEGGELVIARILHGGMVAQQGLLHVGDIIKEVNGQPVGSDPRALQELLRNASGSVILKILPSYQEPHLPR
# Assay: holdup assay
# Design: key: below the threshold = too weak to quantify, mostly under pKd 3.1 to 4
# Settings: plain residues with an end cap or a label only (N-terminal biotin on a linker: ado-ado)
row,Binder,pKd
1,B1,below the threshold
2,B2,below the threshold
